Experimental findings from US20210388074A1 (LUDWIG INSTITUTE FOR CANCER RESEARCH, published 2021) are described below.

Assay [1] deals with T1, TGFb3 (species not stated) (UniProt P10600 301-412).
T1 chain: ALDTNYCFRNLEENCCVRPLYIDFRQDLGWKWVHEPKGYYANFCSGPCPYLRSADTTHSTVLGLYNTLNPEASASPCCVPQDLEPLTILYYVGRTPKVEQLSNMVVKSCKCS
Kind of assay: Biacore single-cycle kinetics. (Surface plasmon resonance follows binding to a sensor surface in real time, without labels.)

Assay [2] has as its target T2, TGFb3 (species not stated) (Homo sapiens (Human), UniProt P10600 301-412).
T2 construct: also called TGFβ3; TGF-β3
T2 sequence: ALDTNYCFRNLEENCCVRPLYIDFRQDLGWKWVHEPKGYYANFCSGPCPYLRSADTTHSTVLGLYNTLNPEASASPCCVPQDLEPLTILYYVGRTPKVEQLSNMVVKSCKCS
Kind of assay: SPR (Biacore), single-cycle kinetics; TGFb3 immobilized directly, Fab as soluble analyte. On the procedure: TGFb3 immobilized directly; Fab as soluble analyte (0 2.5 nM). Single cycle kinetics were conducted as follows Contact: 360 s; Dissociation: 500 s; Flow rate: 30 μl/min.
Binding affinities of the Fabs were in the pM range.

Assay [3] has as its target T3, human recombinant TGF-b3 (Shenandoah Biotechnology, cat. #100-109) (human, UniProt P10600 301-412).
T3 construct: Bought recombinant protein, coated on ELISA plates; also called TGF-β3; hTGF-ß3
T3 sequence: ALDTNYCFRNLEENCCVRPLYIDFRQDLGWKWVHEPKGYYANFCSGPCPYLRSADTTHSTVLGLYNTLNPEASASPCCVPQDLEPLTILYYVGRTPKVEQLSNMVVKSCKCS
Kind of assay: competition ELISA on hTGF-ß3-coated plate; competitor biotinylated murine 1901. The procedure: Nunc Maxisorb ELISA plates were coated overnight at 8° C. with 0.5 μg/ml hTGF-ß1 (Peter Sun, NIH) or hTGF-ß3 (Shenandoah Biotech) at 0.5 μg/ml in 40 mM glycine buffer pH 9. Plates were washed and blocked with 10% FCS for 1 h at 37° C. […] After incubation for 2h at 37° C. plates were washed, Avidine-HRP added and incubated for 1 h at 37° C. Plates washed again, TMB substrate was added and bound biotinylated antibody was quantitated by measuring color development in an ELISA reader at a wave length of 450 nm.
The potency of the humanized LCR1901 IgG4 antibody variants to compete with the parental murine antibody for binding to TGFb3 was assessed by ELISA.
(In an ELISA, binding on a coated surface is turned into a signal by an enzyme label.)

The target of assay [4] is T3, human recombinant TGF-b3 (Shenandoah …). As to the kind of experiment: TGFβ specificity ELISA; HEK293-6E supernatant.
The target is the same in assay [5]. Kind of assay: ELISA; scFv culture on plate-coated TGF-b3, anti-cmyc detection. On the procedure:
(§1) To perform the ELISA a 96-well maxisorp Nunc-immunoplate (Thermo Scientific, cat. #2022-10) was coated with 50 μl/well of human recombinant TGF-b1 (Acrobiosystems, cat. #TG1-H4212), TGF-b2 (R&D Systems, cat. #302-B2-010) and human recombinant TGF-b3 (Shenandoah Biotechnology, cat. #100-109) at 500 ng/ml in PBS at 4° C. overnight. Wells were blocked by the direct addition of 230 μl of block solution (5% skimmed milk/0.05% Tween20 in PBS) without first washing the plate. Blocking was carried out for 45 min with gentle agitation. Concurrently, the bacterial cultures containing the expressed scFv and the rescued phage were blocked by the direct addition of 120 μl of block solution. The blocked maxisorp plate was washed 3× with PBST (PBS+0.1% Tween20) before applying 150 μl of blocked scFv or phage culture to the wells. Incubation was performed for 1 h at room temperature with gentle agitation before washing of the wells with 4×PBST.
(§2) For the scFv ELISA, 100 μl of primary mouse 9E10 anti-cmyc Ab diluted 1/1000 in PBS+1% BSA was added to wells, followed by a 1 h incubation at room temperature with gentle agitation. […] The ELISA was developed by the addition of 100 μl/well of TMB substrate (ThermoFischer Scientific, cat. #34021), stabilized with 50 μl/well of stop solution (2N sulfuric acid) and absorbance signals read at 450 nm and 620 nm.

Assay [6] shares this target. Kind of assay: phage ELISA on plate-coated TGF-b3, anti-fd bacteriophage detection. On the procedure:
as §1
For the phage ELISA, 100 μl of primary rabbit anti-fd bacteriophage Ab (Sigma, cat. #B7786) diluted 1/1000 in PBS+1% BSA was added to wells followed by a 1 h incubation at room temperature with gentle agitation. The plate was washed 4× with PBST before the addition of 100 μl of secondary mouse anti-rabbit IgG (Υ-chain specific) HRP conjugate (Sigma, cat. #A1949) diluted 1/15000 in PBS+1% BSA. […]

Assay [7] shares this target. As to the kind of experiment: ELISA; scFv culture on plate-coated TGF-b3. On the procedure: as §1, §2

B1: 1901-1D Fab (LCR1901_VH_1G10m_03(K)-LCR1901_VK_GLv1_03(F) expressed as Fab) (Fab, V domains shown)
VH: QVQLVQSGAEVKKPGSSVKVSCKASGYTFSSSWIHWVKQRPGKGLEWIGRIYPGDGDTDYSEKFQGRVTITADKSTSTAYMELSSLRSEDTAVYYCARRMITTQAALDYWGQGTLVTVSS
VL: DIQMTQSPSSLSASVGDRVTITCKASQSVINAVAWYQQKPGQSPKLLIYYASNRYTGVPDRFSGSGYGTDFTFTISSLQAEDVAVYYCQQDYSSPYTFGGGTKVEIK
For orientation: Kd means the free concentration of one partner at which half of the binding sites on the other are occupied at equilibrium, for simple one-to-one binding. A high value points to lower affinity. B1 had a Kd in assay [1] of 0.364 nM. Moreover, the binding result in assay [2] is given as “binds”.

B2: 1901-1C Fab (LCR1901_VH_1G10m-LCR1901_VK_GLv1_03(F) expressed as Fab) (Fab, V domains shown)
VH: QVQLVQSGAEVKKPGSSVKVSCKASGYTFSSSWIHWVRQAPGQGLEWIGRIYPGDGDTDYSEKFQGRVTITADKSTSTAYMELSSLRSEDTAVYYCARRMITTQAALDYWGQGTLVTVSS
VL: DIQMTQSPSSLSASVGDRVTITCKASQSVINAVAWYQQKPGQSPKLLIYYASNRYTGVPDRFSGSGYGTDFTFTISSLQAEDVAVYYCQQDYSSPYTFGGGTKVEIK
With B2, in assay [1], the affinity, expressed as Kd, was 0.3 nM. Moreover, in assay [2], the binding result was “binds”.

B3: 1901-1A, LCR1901_VH_1G10m-LCR1901_VK_GLv1_05(H), human IgG4 (S228P) (antibody, V domains shown)
VH: QVQLVQSGAEVKKPGSSVKVSCKASGYTFSSSWIHWVRQAPGQGLEWIGRIYPGDGDTDYSEKFQGRVTITADKSTSTAYMELSSLRSEDTAVYYCARRMITTQAALDYWGQGTLVTVSS
VL: DIQMTQSPSSLSASVGDRVTITCKASQSVINAVAWYQQKPGKAPKLLIYYASNRYTGVPDRFSGSGYGTDFTFTISSLQAEDVAVYYCQQDYSSPYTFGGGTKVEIKR
notes: the latter are used; also called LCR1901-1A
With B3, in assay [3], the binding result was “binds”.

B4: 1901-1B Fab (LCR1901_VH_1G10m_03(K)-LCR1901_VK_GLv1_05(H) expressed as Fab) (Fab, V domains shown)
VH: QVQLVQSGAEVKKPGSSVKVSCKASGYTFSSSWIHWVKQRPGKGLEWIGRIYPGDGDTDYSEKFQGRVTITADKSTSTAYMELSSLRSEDTAVYYCARRMITTQAALDYWGQGTLVTVSS
VL: DIQMTQSPSSLSASVGDRVTITCKASQSVINAVAWYQQKPGKAPKLLIYYASNRYTGVPDRFSGSGYGTDFTFTISSLQAEDVAVYYCQQDYSSPYTFGGGTKVEIK
For the molecule B4, the Kd in assay [1] was 0.285 nM.

B5: 1901-1A Fab (LCR1901_VH_1G10m-LCR1901_VK_GLv1_05(H) expressed as Fab) (Fab, V domains shown)
VH: QVQLVQSGAEVKKPGSSVKVSCKASGYTFSSSWIHWVRQAPGQGLEWIGRIYPGDGDTDYSEKFQGRVTITADKSTSTAYMELSSLRSEDTAVYYCARRMITTQAALDYWGQGTLVTVSS
VL: DIQMTQSPSSLSASVGDRVTITCKASQSVINAVAWYQQKPGKAPKLLIYYASNRYTGVPDRFSGSGYGTDFTFTISSLQAEDVAVYYCQQDYSSPYTFGGGTKVEIK
For the molecule B5, the binding result in assay [2] is “binds”.

B6: 1901_Glv1 (graft) human IgG1 (antibody, V domains shown)
VH: QVQLVQSGAEVKKPGSSVKVSCKASGYAFSSSWIHWVRQAPGQGLEWIGRIYPGDGDTNYTGKFKGRVTITADKSTSTAYMELSSLRSEDTAVYYCARRMITTQAAMDYWGQGTSVTVSS
VL: DIQMTQSPSSLSASVGDRVTITCKASQSVINAVAWYQQKPGKAPKLLIYYASNRYTGVPSRFSGSGSGTDFTLTISSLQPEDFATYYCQQDYSSPYTFGGGTKVEIK
notes: Tested as HEK293-6E supernatant; also called LCR1901_GLv1 mAb (IgG1)
In the case of B6, in assay [4], the binding result is on record as “binds”.

B7: 1901-1D, LCR1901_VH_1G10m_03(K)-LCR1901_VK_GLv1_03(F), human IgG4 (S228P) (antibody, V domains shown)
VH: QVQLVQSGAEVKKPGSSVKVSCKASGYTFSSSWIHWVKQRPGKGLEWIGRIYPGDGDTDYSEKFQGRVTITADKSTSTAYMELSSLRSEDTAVYYCARRMITTQAALDYWGQGTLVTVSS
VL: DIQMTQSPSSLSASVGDRVTITCKASQSVINAVAWYQQKPGQSPKLLIYYASNRYTGVPDRFSGSGYGTDFTFTISSLQAEDVAVYYCQQDYSSPYTFGGGTKVEIKR
notes: the latter are used; also called LCR1901-1D
Turning to B7, in assay [3], the binding result was “binds”.

B8: 1901-1C, LCR1901_VH_1G10m-LCR1901_VK_GLv1_03(F), human IgG4 (S228P) (antibody, V domains shown)
VH: QVQLVQSGAEVKKPGSSVKVSCKASGYTFSSSWIHWVRQAPGQGLEWIGRIYPGDGDTDYSEKFQGRVTITADKSTSTAYMELSSLRSEDTAVYYCARRMITTQAALDYWGQGTLVTVSS
VL: DIQMTQSPSSLSASVGDRVTITCKASQSVINAVAWYQQKPGQSPKLLIYYASNRYTGVPDRFSGSGYGTDFTFTISSLQAEDVAVYYCQQDYSSPYTFGGGTKVEIKR
notes: also called LCR1901-1C
With B8, the binding result in assay [3] was “binds”.

B9: 1901_Chimeric (mouse 1901 variable domains fused to human IgG1 Fc) (antibody, V domains shown)
VH: QVLLQQSGPELVKPGASVKISCKASGYAFSSSWIHWVKQRPGKGLEWIGRIYPGDGDTNYTGKFKGKATLTADKSSSTAYMQLSSLTSEDSAVYFCARRMITTQAAMDYWGQGTSVTVSS
VL: SFVMTQTPKFLLVSAGDRVTITCKASQSVINAVAWYQQKPGQSPKLLIYYASNRYTGVPDRFTGNGYGTDFTFTISTVQAEDLAVYFCQQDYSSPYTFGGGTKLEIK
notes: Tested as HEK293-6E supernatant; also called murine chimeras
On to B9, for which the binding result in assay [4] is on record as “binds”.

B10: LCR1901_scFv (murine 1901 VH and VL reformatted as soluble scFv) (scFv)
scFv: SFVMTQTPKFLLVSAGDRVTITCKASQSVINAVAWYQQKPGQSPKLLIYYASNRYTGVPDRFTGNGYGTDFTFTISTVQAEDLAVYFCQQDYSSPYTFGGGTKLEIKRTVAARQEGGSGEGGSGESNAAAQVLLQQSGPELVKPGASVKISCKASGYAFSSSWIHWVKQRPGKGLEWIGRIYPGDGDTNYTGKFKGKATLTADKSSSTAYMQLSSLTSEDSAVYFCARRMITTQAAMDYWGQGTSVTVSSASTKAS
notes: Expressed in E. coli from pCHV101 and tested as culture; also called LCR1901_soluble scFv; parental soluble scFv
In the case of B10, in assay [5], the binding result is recorded as “binds”.

B11: LCR1901_Phage (murine 1901 scFv fused to the pIII coat protein of filamentous bacteriophage) (scFv)
scFv: SFVMTQTPKFLLVSAGDRVTITCKASQSVINAVAWYQQKPGQSPKLLIYYASNRYTGVPDRFTGNGYGTDFTFTISTVQAEDLAVYFCQQDYSSPYTFGGGTKLEIKRTVAARQEGGSGEGGSGESNAAAQVLLQQSGPELVKPGASVKISCKASGYAFSSSWIHWVKQRPGKGLEWIGRIYPGDGDTNYTGKFKGKATLTADKSSSTAYMQLSSLTSEDSAVYFCARRMITTQAAMDYWGQGTSVTVSSASTKAS
notes: not shown: pIII coat protein of filamentous bacteriophage from the pCHV101 phagemid
Consider B11, for which, in assay [6], the binding result is reported as “binds”.

B12: LCR1901_GLv1_scFv (murine 1901 CDRs grafted onto IGKV1-39*01/IGHV1-69*08, scFv) (scFv)
scFv: DIQMTQSPSSLSASVGDRVTITCKASQSVINAVAWYQQKPGKAPKLLIYYASNRYTGVPSRFSGSGSGTDFTLTISSLQPEDFATYYCQQDYSSPYTFGGGTKLEIKRTVAARQEGGSGEGGSGESNAAAQVQLVQSGAEVKKPGSSVKVSCKASGYAFSSSWIHWVRQAPGQGLEWIGRIYPGDGDTNYTGKFKGRVTITADKSTSTAYMELSSLRSEDTAVYYCARRMITTQAAMDYWGQGTSVTVSSASTKAS
notes: Expressed in E. coli from pCHV101
As to B12, in assay [7], the binding result was “binds”.
